Tested on: MS2 coat protein
Experiment: apparent KD of MS2 coat protein; designed switch direction (-1 OFF switch, 1 ON switch): -1; higher = weaker reporter binding
Summary of the method: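 Stalled E. coli RNA polymerase transcribed designed RNA switches on Illumina chips, which were then titrated with SNAP-549-labelled MS2 coat protein, doubling from 0.7 or 1.5 nM to 3 µM. Steps lasted from 0.8–1.5 h at the lowest concentration to 10–20 min at the highest. The apparent KD is each design's median over clusters of curve-fitted normalised fluorescence.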

[1] = Eterna round: R95, input ligand: microRNA oligo, concentration not stated
[2] = Eterna round: R95, input ligand: FMN 200 uM
[3] = Eterna round: R95, input ligand: none
[4] = input ligand: microRNA oligo, concentration not stated

| Sequence | apparent KD of MS2 coat protein (input ligand: FMN 200 uM) [µM] | apparent KD of MS2 coat protein (input ligand: none) [µM] | apparent KD of MS2 coat protein [1] [µM] | apparent KD of MS2 coat protein [2] [µM] | apparent KD of MS2 coat protein [3] [µM] | apparent KD of MS2 coat protein [4] [µM] |
| --- | --- | --- | --- | --- | --- | --- |
| AUAUUGUGAGGAUAUGUACUUAGUAUCGAAAGAUACUAAGUUCAGAAGGCACAUGAGGAUCACCCAUGUUUCUC [Long static hairpin v13] (Eterna round: R97, puzzle: Exclusion 4) | 0.805 | 0.0635 | – | – | – | – |
| GUGAAGGUAGGAUAUACGAUAAUAUAGGGUAGAUAUAUAACACAUGAGGAUCACCCAUGUAGAAGGACCAAGUG [Mat - Exclusion 2 - Mod of my Tesla design - D61] (puzzle: Exclusion 2) | – | – | 0.046 | – | – | – |
| CUUAGCCUAAAAUCACGCAAGCUUUUCGCUUGUCUUAAGACAUGAGGAUCACCCAUGUCCGGGCUGAACUUAUGGAA [Esenma] (puzzle: Sensor v3, turn-off variant 2) | – | – | 0.0192 | 0.0183 | 0.0185 | – |
| CCGGAAAGGAAGGAUAUGCUAGACGAUAGUCUAGCAGAAGGUCCUACAUGAGGAUCACCCAUGUGUCCUCCCGG [Mat - Exclusion 6 - Eli Mod - D43] (Eterna round: R97, puzzle: Exclusion 6) | 1.26 | 0.182 | – | – | – | – |
| GGUACUCAAAGAGUACCAAUACGAACAUGAGGAUCACCCAUGUAGGAUAUGCUACUCAAAGAGUAGCAGAAGGAUAUGAGCCUC [Far Half Aptamer v11] (Eterna round: R96, puzzle: Exclusion NG 3) | 0.663 | 0.334 | – | – | – | 0.319 |
| UGACUUCAUAUCACAUGAGGAUCACCCAUGUUAUUCAUCUCGUAGGAUAUCGAGGUUUAUUAUUUCGAGAAGGACGUAUUGUUU [JR_ExcNG3_Sub075] (Eterna round: R96, puzzle: Exclusion NG 3) | 0.0686 | 0.0455 | – | – | – | 0.0443 |
| AUAUUAAUAGUAAGGAUAUGCGUAUAUGUAGUUAUGCAGAAGGUACAUGAGGAUCACCCAUGUAUUAAUGUGUA [LRO-BmodExc4-04-Oppy's Opus] (Eterna round: R97, puzzle: Brourd's mod of Exclusion 4) | 0.016 | 0.016 | – | – | – | – |
| AUGGUGUCAGGAUAUCUCAAAGCACAGAAUGAGCGGCUACGGGAGAAGGGACAUGAGGAUCACCCAUGUACUCU [EX4 B.29] (Eterna round: R97, puzzle: Exclusion 4) | 0.0199 | 0.0186 | – | – | – | – |
| AGCUGUGGCCGAGGAUAUCUGUUCCAAAUAACCGACGUAUAGUCGGACAUGAGGAUCACCCAUGUAGAGAAGGCGGUCUCAGCA [Eli eng2 - 101] (Eterna round: R96, puzzle: Exclusion NG 2) | 0.136 | 0.0639 | – | – | – | 0.038 |
| AGUAGUAGUAUCCGAUCCUACAUGAGGAUCACCCAUGUUGCUAGACGUGCACGCGAUGCUCGUCAGACUACCAGAUG [salish99_TOv1_r3_050] (puzzle: Sensor v3, turn-off variant 1) | – | – | 0.15 | 0.326 | 0.157 | – |
| UCUCGACAUGAGGAUCACCCAUGUCAGGAUAUUGUGUUUUGGGUUUUUUACCUUUUGGCAAGAAGGGAUGUGUG [LRO-Excl1-20] (puzzle: Exclusion 1) | – | – | 0.0204 | – | – | – |
| CAGGAUAGAGGAUAUACAUAGAUACAGAUUCAUGUGAUCCUACAUGAGGAUCACCCAUGUAGAAGGCUAUCCUG [Fiskers Ex 2 - 21] (puzzle: Exclusion 2) | – | – | 0.24 | – | – | – |
| AAGGCGCGCGUAGGAUAUCACCGCAAAAGUCGAUGAGAAGGGCGAGUGCAUGGUGUCCUAACUUGAGGAUCACCCAAGUAAAGA [Mutated MS2 EX1.22] (Eterna round: R96, puzzle: Exclusion NG 1) | 0.0679 | 0.0565 | – | – | – | 0.0415 |
| AAAACUCACGUAGGAUAUCAUUCCUUAAGGUAGUGAGAAGGACGUGACUACAUGUCCUUGAACAUGAGGAUCACCCAUGUAGGC [Cerama] (Eterna round: R96, puzzle: Exclusion NG 1) | – | – | – | – | – | 0.0365 |
| AAAUUCAGAGGAUAUGCGCAUAGAUAAGACUUUUUUUCUUAACAUGAGGAUCACCCAUGUAGAAGGCUGUAAAC [Ex2 #61] (Eterna round: R97, puzzle: Exclusion 2) | 0.0188 | 0.0162 | – | – | – | – |
| AAUAACAGAGGAUAUACUAUUUUAUGUGUUUGUUGUUUUAAACAUGAGGAUCACCCAUGUAGAAGGCUGAAUGA [JMF 61] (puzzle: Exclusion 2) | – | – | 0.0238 | – | – | – |
| AAUAACUUAGGAUAUACAUGAGGAUCACCCAUGUCCCACCCGUUACCCAUGACCAUAUGUAGAAGGAAGAAGAA [Exy#8] (Eterna round: R97, puzzle: Exclusion 3) | 0.028 | 0.0357 | – | – | – | – |
| CCAGUGUAAGGAUAUCCGUUGCCGGAUAGAUGAUUAACAGCGGAGAAGGUACAUGAGGAUCACCCAUGUGUCCA [Eternabot (L1) Solution 8] (Eterna round: R97, puzzle: Exclusion 4) | 0.0309 | 0.0209 | – | – | – | – |
| UUAAUUCGGAUUCUUGAAAUACAUGAGGAUCACCCAUGUUCACAGGAUAUUGAUUAAGUUAGUAACAAGAAGGGUGUAACAUAA [JR_ExcNG3_Sub035] (Eterna round: R96, puzzle: Exclusion NG 3) | 0.0578 | 0.0229 | – | – | – | 0.0176 |
| GAGUUAGCGUGUGGCACAUACAUGAGGAUCACCCAUGUUAGCUUAUAUAUUGCUCGUCUUAUAACAACACUUAACUG [Mod JX-Electric-eye5] (Eterna round: R97, puzzle: Sensor, turn-off variant 1) | 0.0225 | 0.0239 | – | – | – | – |
| AGUUGGCGAGGAUAUACAUGAGGAUCACCCAUGUGAGAGAUAGUAGUGAGGUCGAUUAGUAGAAGGCGCUGACA [Mat X3R4 m13] (Eterna round: R97, puzzle: Exclusion 3) | 0.278 | 0.353 | – | – | – | – |
| GUUGUUACUGAGGAUAUUAUUUUAUUCGAUUGAUAAGAAGGCAGUACAUGAGGAUCACCCAUGUGGGUAGCUAG [Polaris20] (Eterna round: R97, puzzle: Exclusion 6) | 0.434 | 0.0955 | – | – | – | – |
| AUAAUGUGAGGAUAUCAGUCGACUAGCUUCGGCUAGUCGACUGAGAAGGCACAUGAGGAUCACCCAUGUAGAUC [E4/17-A1] (Eterna round: R97, puzzle: Exclusion 4) | 0.059 | 0.925 | – | – | – | – |
| AAAGAACAUGAGGAUCACCCAUGUGAGGAUAUGUAAGGAUAGGACCGAAGAAGCGAGAACAGAAGGCACAGAGG [JR_Exclu1_Sub069] (puzzle: Exclusion 1) | – | – | 0.0234 | 0.035 | 0.0186 | – |
| UGUGCGUCAGGAUAUUCUACUUAUUACAUGAGGAUCACCCAUGUGAAUGUACAAGGGUGUGAAGAAGGGACUUGUC [LRO-Excl5-05-mod A17d by Omei] (Eterna round: R97, puzzle: Exclusion 5) | 0.194 | 0.798 | – | – | – | – |
| AAGACUAGAGGAUAUACAUGAGGAUCACCCAUGUAACUGUCAGGUGACUGACGGAAAUGUAGAAGGCUAGUCAA [Mat - Exclusion 3 - JL mod - D81] (Eterna round: R96, puzzle: Exclusion 3) | 0.0542 | 0.0168 | – | – | – | 0.0136 |

Source: the supplement of paper PMC9170038
